Results published in IntAct's records for PubMed 16249186.

B1: Retinoblastoma-associated protein (Homo sapiens), P06400 (parent)
chain: MPPKTPRKTAATAAAAAAEPPAPPPPPPPEEDPEQDSGPEDLPLVRLEFEETEEPDFTALCQKLKIPDHVRERAWLTWEKVSSVDGVLGGYIQKKKELWGICIFIAAVDLDEMSFTFTELQKNIEISVHKFFNLLKEIDTSTKVDNAMSRLLKKYDVLFALFSKLERTCELIYLTQPSSSISTEINSALVLKVSWITFLLAKGEVLQMEDDLVISFQLMLCVLDYFIKLSPPMLLKEPYKTAVIPINGSPRTPRRGQNRSARIAKQLENDTRIIEVLCKEHECNIDEVKNVYFKNFIPFMNSLGLVTSNGLPEVENLSKRYEEIYLKNKDLDARLFLDHDKTLQTDSIDSFETQRTPRKSNLDEEVNVIPPHTPVRTVMNTIQQLMMILNSASDQPSENLISYFNNCTVNPKESILKRVKDIGYIFKEKFAKAVGQGCVEIGSQRYKLGVRLYYRVMESMLKSEEERLSIQNFSKLLNDNIFHMSLLACALEVVMATYSRSTSQNLDSGTDLSFPWILNVLNLKAFDFYKVIESFIKAEGNLTREMIKHLERCEHRIMESLAWLSDSPLFDLIKQSKDREGPTDHLESACPLNLPLQNNHTAADMYLSPVRSPKKKGSTTRVNSTANAETQATSAFQTQKPLKSTSLSLFYKKVYRLAYLRLNTLCERLLSEHPELEHIIWTLFQHTLQNEYELMRDRHLDQIMMCSMYGICKVKNIDLKFKIIVTAYKDLPHAVQETFKRVLIKEEEYDSIIVFYNSVFMQRLKTNILQYASTRPPTLSPIPHIPRSPYKFPSSPLRIPGGNIYISPLKSPYKISEGLPTPTKMTPRSRILVSIGESFGTSEKFQKINQMVCNSDRVLKRSAEGSNPPKPLKKLRFDIEGSDEADGSKHLPGESKFQQKLAEMTSTRTRMQKQKMNDSMDTSNKEEK
partner: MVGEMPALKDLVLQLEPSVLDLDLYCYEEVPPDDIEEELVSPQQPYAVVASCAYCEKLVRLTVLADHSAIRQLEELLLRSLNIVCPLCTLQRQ
B2: Protein E7 (Human papillomavirus type 1a), P06465 (parent)
chain: B1 partner
partner: B1 chain
B3: Protein E7 (Human papillomavirus type 1a), P06465 (parent)
chain: B1 partner

Variants of: B1
Details: with ve7_hpv1 E7, P06465

Row | Variant | effect of a mutation on the interaction
1 | K810E;K814E;K824E | disrupting interaction

Variants of: B2
Details: with rb_human RB1, P06400

Row | Variant | effect of a mutation on the interaction
2 | E74R;E75R | decreasing interaction

Variants of: B3
Details: with e2f3_human E2F3, O00716
e2f3_human E2F3, O00716, sequence (O00716 whole entry): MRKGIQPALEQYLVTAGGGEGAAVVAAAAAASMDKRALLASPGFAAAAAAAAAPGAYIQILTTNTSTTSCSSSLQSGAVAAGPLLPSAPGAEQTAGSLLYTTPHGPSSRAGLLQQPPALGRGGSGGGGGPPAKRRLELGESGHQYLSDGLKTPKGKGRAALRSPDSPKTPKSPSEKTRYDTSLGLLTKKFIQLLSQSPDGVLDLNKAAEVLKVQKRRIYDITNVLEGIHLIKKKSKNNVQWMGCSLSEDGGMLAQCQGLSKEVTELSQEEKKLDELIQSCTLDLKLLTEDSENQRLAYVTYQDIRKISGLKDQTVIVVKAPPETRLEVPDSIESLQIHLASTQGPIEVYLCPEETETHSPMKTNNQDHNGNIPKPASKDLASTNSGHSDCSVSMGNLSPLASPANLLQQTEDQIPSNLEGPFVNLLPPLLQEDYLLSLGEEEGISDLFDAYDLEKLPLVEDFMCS

Row | Variant | effect of a mutation on the interaction
3 | R60E | decreasing interaction
4 | L61E | decreasing interaction
